Source: US20230212549A1 (3B PHARMACEUTICALS, published 2023)
Numbered stars: 1 amine (or outer) side, 2 acyl side, 3 side chain; on linkers, the order of the positions; unused ones are H or OH. Bridge positions count the residues as written; N and C are the ends. Square brackets hold non-standard residues; d marks the D form. Primed or numbered codes have the meaning given here. * marks the point of attachment. TBMB(SCH2CH2NH-DOTA) = O=C(O)CN1CCN(CC(=O)O)CCN(CC(=O)NCCSCc2cc(C[*:1])cc(C[*:2])c2)CCN(CC(=O)O)CC1; Ttds(6) = 1,13-Diamino-4,7,10-trioxatridecan-succinamic acid, O=C(CCC(=O)[*:2])NCCCOCCOCCOCCCN[*:1]; 3MeBn = 3-Methylbenzylidene (m-xylylene thioether bridge from α,α′-dibromo-m-xylene); Ttds(4) = spacer between chelator and peptide, O=C(CCC(=O)[*:2])NCCCOCCOCCOCCCN[*:1]; N4Ac = 6-Carboxy-1,4,8,11-tetraazaundecane, an N4-chelator, NCCNCC(CNCCN)C(=O)*; 3Lut = 3,5-lutidylidene (derived from 3,5-lutidine); nBu‑CAyl = n-butylaminocarbonyl, CCCCNC(=O)*; PPAc = 4-Carboxymethyl piperazine; Nle = CCCC[C@H](N)C(=O)O; PEG6′ = not defined here; βAla = NCCC(=O)O; Sar = CNCC(=O)O

B1: N4Ac-PEG6-Nle-[C(3Lut)-PPTEFC]-OH (peptide)
peptide: {N4Ac-PEG6′}-[Nle]CPPTEFC-OH
modifications: linker 2-8 via 3Lut
notes: also called 3BP-4773
B2: N4Ac-PPAc-Ttds-Nle-[C(3Lut)-PPTEFC]-OH (peptide)
peptide: {N4Ac-PPAc-Ttds(4)}-[Nle]CPPTEFC-OH
modifications: linker 2-8 via 3Lut
notes: also called 3BP-4775
B3: N4Ac-PPAc-Ttds-Nle-[C(3MeBn)-PPTEFC]-Bal-OH (peptide)
peptide: {N4Ac-PPAc-Ttds(4)}-[Nle]CPPTEFC[βAla]-OH
modifications: linker 2-8 via 3MeBn
notes: also called 3BP-4784
B4: nBu-CAyl-[C(tMeBn(NOPO-AET))-PPTEFC]-OH (peptide)
peptide: {nBu‑CAyl}-CPPTEFC-OH
modifications: linker 1-7 via tMeBn(NOPO-AET)
notes: also called 3BP-4778
B5: N4Ac-PPAc-Ttds-Nle-[C(3MeBn)-PPTEFC]D-OH (peptide)
peptide: {N4Ac-PPAc-Ttds(4)}-[Nle]CPPTEFCD-OH
modifications: linker 2-8 via 3MeBn
notes: also called 3BP-4785
B6: nBu-CAyl-[C(tMeBn(NODAGA-AET))-PPTEFC]-OH (peptide)
peptide: CPPTEFC
modifications: N-term nBu-CAyl-; Cys1 and Cys7 thioether-bridged by tMeBn(NODAGA-AET); C-term -OH
notes: also called 3BP-4724
B7: nBu-CAyl-[Cys(tMeBn(DOTA-AET))-Nmg-Pro-Thr-Gln-Phe-Cys]-OH (peptide)
peptide: {nBu‑CAyl}-C[Sar]PTQFC-OH
modifications: linker 1-7 via TBMB(SCH2CH2NH-DOTA)
SMILES: CCCCNC(=O)N[C@H]1CSCc2cc(CSCCNC(=O)CN3CCN(CC(=O)O)CCN(CC(=O)O)CCN(CC(=O)O)CC3)cc(c2)CSC[C@@H](C(=O)O)NC(=O)[C@H](Cc2ccccc2)NC(=O)[C@H](CCC(N)=O)NC(=O)[C@H]([C@@H](C)O)NC(=O)[C@@H]2CCCN2C(=O)CN(C)C1=O
notes: also called 3BP-4607
B8: nBu-CAyl-[Cys(tMeBn(DOTA-AET))-Nmg-Pro-Thr-Gln-Phe-Cys]-NH2 (peptide)
peptide: {nBu‑CAyl}-C[Sar]PTQFC-NH2
modifications: linker 1-7 via TBMB(SCH2CH2NH-DOTA)
SMILES: CCCCNC(=O)N[C@H]1CSCc2cc(CSCCNC(=O)CN3CCN(CC(=O)O)CCN(CC(=O)O)CCN(CC(=O)O)CC3)cc(c2)CSC[C@@H](C(N)=O)NC(=O)[C@H](Cc2ccccc2)NC(=O)[C@H](CCC(N)=O)NC(=O)[C@H]([C@@H](C)O)NC(=O)[C@@H]2CCCN2C(=O)CN(C)C1=O
notes: also called 3BP-4621
B9: N4Ac-Ttds-Glu-[Cys-(3MeBn)-Pro-Pro-Thr-Glu-Phe-Cys]-OH (peptide)
peptide: N4Ac-[Ttds(6)]ECPPTEFC-OH
modifications: linker 3-9 via 3MeBn
notes: also called 3BP-4233

biological target: T1, Human recombinant FAP captured on anti-FAP antibody (SPR) (human, UniProt Q12884 26-760); assay: SPR (Biacore), rhFAP captured by anti-FAP antibody; pKD category B = 7.1-8.0
T1 construct: whole entry of human FAP named; also called rhFAP

pKD | Binder
7.1 to 8 pkd | B1
7.1 to 8 pkd | B2

biological target: T2, human fibroblast activating protein (FAP) on WI-38 fibroblasts (human, UniProt Q12884 1-760); assay: competitive FACS on WI-38 cells vs 3 nM Cy5-labeled peptide; pIC50 category A = >8.0
T2 construct: FAP-expressing human WI-38 fibroblasts (ECACC)

pIC50 | Binder
> 8 pic50 | B3
> 8 pic50 | B4
> 8 pic50 | B5
> 8 pic50 | B6

biological target: T1, Human recombinant FAP captured on …; assay: SPR (Biacore), rhFAP captured by anti-FAP antibody; pKD category A = >8.0

pKD | Binder
> 8 pkd | B7
> 8 pkd | B3
> 8 pkd | B4
> 8 pkd | B8

biological target: Recombinant human FAP (R&D systems, #3715-SE) (human, UniProt Q12884 26-760); assay: cell-based or functional assay

pIC50 Category (Activity) | Binder
≤ 6 pIC50 | B9

biological target: T2, human fibroblast activating protein …; assay: competitive FACS on WI-38 cells vs 3 nM Cy5-labeled peptide; pIC50 category B = 7.1-8.0

pIC50 | Binder
7.1 to 8 pic50 | B1
7.1 to 8 pic50 | B2

biological target: T3, human fibroblast activation protein (FAP) on WI-38 fibroblasts (human, UniProt Q12884 1-760); assay: competitive FACS, WI-38 cells, Cy5-labeled peptide as competitor; C = pIC50 6.1 to 7.0
T3 construct: FAP-expressing human WI-38 fibroblasts (ECACC)

pIC50 | Binder
6.1 to 7 pic50 | B9
